In the series the target is human transferrin receptor (hTfR), extracellular domain (Homo sapiens, UniProt P02786 89-760). Nature of the series: SPR; ka 6.30E+06; kd 1.38E-04 s-1; SPR Biacore T100, SA chip, biotinylated aptamer heated to 65°C then cooled to 37°C before immobilization; five hTfR concentrations at 10 uL/min; 1:1 model with. Conditions: protein: commercial; tags: N-terminal tag (His implied by Ni-NTA; tag name cut in the text); chain copies: 2; label: biotin. Background: Surface plasmon resonance follows binding to a sensor surface in real time, without labels.
Chain of human transferrin receptor (hTfR), extracellular domain (P02786 89-760): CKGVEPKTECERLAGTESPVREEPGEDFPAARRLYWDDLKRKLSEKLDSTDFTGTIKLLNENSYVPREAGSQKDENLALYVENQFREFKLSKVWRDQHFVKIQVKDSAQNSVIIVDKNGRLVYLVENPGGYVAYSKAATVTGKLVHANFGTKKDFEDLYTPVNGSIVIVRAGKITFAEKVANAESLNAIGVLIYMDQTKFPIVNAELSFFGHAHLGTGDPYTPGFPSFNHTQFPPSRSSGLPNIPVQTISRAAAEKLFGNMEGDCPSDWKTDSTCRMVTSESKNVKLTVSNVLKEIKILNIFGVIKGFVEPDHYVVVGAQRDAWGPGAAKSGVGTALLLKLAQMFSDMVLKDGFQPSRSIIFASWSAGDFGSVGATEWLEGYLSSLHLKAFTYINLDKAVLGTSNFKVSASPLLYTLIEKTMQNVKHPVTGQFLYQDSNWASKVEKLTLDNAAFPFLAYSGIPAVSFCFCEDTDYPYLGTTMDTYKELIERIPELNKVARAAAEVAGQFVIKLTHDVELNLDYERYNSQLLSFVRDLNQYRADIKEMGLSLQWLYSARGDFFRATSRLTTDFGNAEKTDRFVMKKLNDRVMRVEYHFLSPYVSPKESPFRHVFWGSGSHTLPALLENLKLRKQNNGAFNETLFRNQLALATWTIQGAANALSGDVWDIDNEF

In turn, UUUAUUCACAUUUUUGAAUUGA (XNA, all U and C 2'F-2'-deoxy (i2FU, i2FC); A and G ribo) [tTfR aptamer 22-nt (truncated)] had an equilibrium dissociation constant (Kd) of 0.022 nM.

The term Kd denotes a measure of binding affinity in units of concentration. Read a low Kd as a tighter complex.

The values are drawn from article PMC12144868, “New Transferrin Receptor‐Targeting Conjugate Effectively Delivers DNA to Mouse Brain”.
